Values of other authors, collected in paper PMC3204931.
pKd: −log10 of the molar value.

Target: Rac2 (Homo sapiens) (UniProt P15153)

PLD2 (from UniProt O14939)
pKd: 8.00
